Article PMC3593212, “Sequence-Specific, RNA–Protein Interactions Overcome Electrostatic Barriers Preventing Assembly of Satellite Tobacco Necrosis Virus Coat Protein” (Journal of Molecular Biology, 2013)

Tests used:
[1] = target: the molecule itself; experiment: crystal structure; VLP reassembled from purified CP with B3 RNA aptamer (5:1 w/w CP:RNA) in 50 mM Hepes, 3 mM CaCl2, pH 7.5, purified by SEC; crystals in 50 mM phosphate pH 6.2-6.8, 0.2-0.8% PEG 6000, 0-1 mM MgCl2, 25 °C; strict 60-fold NCS
STNV-1 coat protein (CP) [2] = target: T1, STNV-1 coat protein (CP) (Satellite tobacco necrosis virus 1 …, UniProt P03606 1-196); experiment: analytical ultracentrifugation (capsid reassembly), TEM; VLPs form even at lowest molar ratio; 28 S and ~42 S species at 1:1; Reassembly buffer, salt, pH and temperature not in the material (capsid assembly depends on calcium and pH); short RNAs at molar ratios incl. 1:1 and 2.5:1; CP; conditions: protein: recombinant; hairpin, 4-nt loop ACAA
T1 sequence: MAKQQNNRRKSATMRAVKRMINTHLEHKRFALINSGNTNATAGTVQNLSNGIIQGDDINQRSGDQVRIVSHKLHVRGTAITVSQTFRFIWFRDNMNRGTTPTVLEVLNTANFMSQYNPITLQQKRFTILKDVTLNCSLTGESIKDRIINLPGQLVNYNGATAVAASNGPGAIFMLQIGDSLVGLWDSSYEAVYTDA

STNV-1 coat protein (CP) [3] = target: T1, STNV-1 coat protein (CP); experiment: analytical ultracentrifugation (capsid reassembly); heterologous RNA; triggers capsid assembly; Reassembly buffer, salt, pH and temperature not in the material (capsid assembly depends on calcium and pH); short RNAs at molar ratios incl. 1:1 and 2.5:1; CP; conditions: protein: recombinant; hairpin, loop AUUA
STNV-1 coat protein (CP) [4] = target: T1, STNV-1 coat protein (CP); experiment: analytical ultracentrifugation (capsid reassembly); assembly more efficient than B3; Reassembly buffer, salt, pH and temperature not in the material (capsid assembly depends on calcium and pH); short RNAs at molar ratios incl. 1:1 and 2.5:1; CP; conditions: protein: recombinant; hairpin, 4-nt loop ACAA

B1: satellite tobacco necrosis virus (STNV-1) coat protein (natural protein)
chain: T1 sequence
notes: coat protein of satellite tobacco necrosis virus strain 1 (STNV-1), recombinant version expressed from a synthetic gene; In the T = 1 capsid the chain stands 60 times; all assembly here was done with RNA present; also called STNV CP; CP; source: E. coli (synthetic gene); recombinant VLPs purified, disassembled in 50 mM Hepes, 10 mM EDTA, pH 8.5; CP separated from the mRNA by Q-Sepharose FF and SP …
In the case of B1, the “stoichiometry N” value [1] is reported as 60.

CCUUUUCAAGACAUGCAACAAUGCACACAG (structured_RNA) [B3 aptamer]: binds (STNV-1 coat protein (CP) [2]).

ACAUGAGGAUUACCCAUGU (structured_RNA) [MS2 TR]: binds (STNV-1 coat protein (CP) [3]).

CGUGCAACAAUGCACG (structured_RNA) [B3 short]: binds (STNV-1 coat protein (CP) [4]).
